Laboratory results: article PMC5785501, “Crystal structure of lipid A disaccharide synthase LpxB from Escherichia coli” (Nature Communications, 2018)

Columns and labels:
[1] = target: the molecule itself; experiment: crystal structure; X-ray, one molecule in the asymmetric unit, dimer by crystal symmetry; LiCl, PEG 4000, 0.1 M Tris-HCl pH 8.6; apo and soaked with 10 mM UDP-GlcNAc
[2] = target: the molecule itself; experiment: AUC; LpxB6S at 1 mg/ml, 5,000-16,000 r.p.m. for 10 h each, absorbance at 280 nm; mass modelled

B1: LpxB7S (LpxB6S with M207S) (enzyme, Escherichia coli, UniProt P10441 1-382, looked up)
chain: MTEQRPLTIALVAGETSGDILGAGLIRALKEHVPNARFVGVAGPRMQAEGCEAWYEMEELAVMGISESSGRSRRSSHIRADLTKRFGELKPDVFVGIDAPDFNITLEGNLKKQGIKTIHYVSPSVWAWRQKRVFKIGRATDLVLAFLPFEKAFYDKYNVPCRFIGHTMADAMPLDPDKNAARDVLGIPHDAHCLALLPGSRGAEVESLSADFLKTAQLLRQTYPDLEIVVPLVNAKRREQFERIKAEVAPDLSVHLLDGMGREAMVASDAALLASGTAALECMLAKCPMVVGYRMKPFTFWLAKRLVKTDYVSLPNLLAGRELVKELLQEECEPQKLAAALLPLLANGKTSHAMHDTFRELHQQIRCNADEQAAQAVLELAQ
notes: lipid A disaccharide synthase LpxB, Escherichia coli; Native LpxB7S, apo and soaked with UDP-GlcNAc (UDP seen); also called LpxB6SM207S; source: E. coli BL21 (DE3), purified (Ni-NTA, Ulp1 cleavage, Superdex 200); not shown: His tag, N-terminal, cleaved; SUMO, N-terminal, cleaved
binding result [1]: binds

B2: LpxB6S (E. coli lipid A disaccharide synthase LpxB with V66S, V68S, L69S, L72S, L75S, L76S) (enzyme, Escherichia coli, UniProt P10441 1-382, looked up)
chain: MTEQRPLTIALVAGETSGDILGAGLIRALKEHVPNARFVGVAGPRMQAEGCEAWYEMEELAVMGISESSGRSRRSSHIRADLTKRFGELKPDVFVGIDAPDFNITLEGNLKKQGIKTIHYVSPSVWAWRQKRVFKIGRATDLVLAFLPFEKAFYDKYNVPCRFIGHTMADAMPLDPDKNAARDVLGIPHDAHCLALLPGSRGAEVEMLSADFLKTAQLLRQTYPDLEIVVPLVNAKRREQFERIKAEVAPDLSVHLLDGMGREAMVASDAALLASGTAALECMLAKCPMVVGYRMKPFTFWLAKRLVKTDYVSLPNLLAGRELVKELLQEECEPQKLAAALLPLLANGKTSHAMHDTFRELHQQIRCNADEQAAQAVLELAQ
notes: lipid A disaccharide synthase LpxB, Escherichia coli; residues up to 382 named in the structure; the gene was cloned from strain BL21; also called soluble LpxB; solubilized LpxB; source: E. coli BL21 (DE3), purified (Ni-NTA, Ulp1 cleavage, Superdex 200); not shown: His tag, N-terminal, cleaved; SUMO, N-terminal, cleaved
stoichiometry N [2]: 2
